Among the data in patent US20070059309A1 are neutralization of anti-viral activity, EC50 (read off the bars); loss of protection by 3 IU/ml lymphoblastoid interferon, cytopathic effect and EC50 (read off the bars); loss of protection by 10 IU/ml lymphoblastoid interferon, cytopathic effect values, retold here.

Assay [1] deals with leukocyte interferon (Sigma Product No. I-2396). The experiment in a line: cell-based or functional assay.
The target in assay [2] is lymphoblastoid interferon (NIH reference Ga23-901-532).

B1: murine anti-human IFN-α monoclonal antibody 9F3 (antibody, IgG2, V domains shown)
VL: DIVLTQSPASLAVSLGQRATISCRASQSVSTSSYSYMHWYQQKPGQPPKVLISYASNLESGVPARFSGSGSGTDFTLNIHPVEEGDTATYFCQHSWGIPRTFGAGTKLELRRAV
VH: EVQLQQSGPELVKPGASVKISCKTSGYTFTEYIIHWVKQGHGRSLEWIGSINPDYDITNYNQRFKGKATLTLDKSSRTAYLELRSLTSEDSAVYYCASWISDFFDYWGQGTTLMVSAAS
With B1, the neutralization of anti-viral activity in assay [1] is > 95%. In assay [2], this molecule returned an EC50 (read off the bars); loss of protection by 3 IU/ml lymphoblastoid interferon, cytopathic effect of 3 ng/mL and an EC50 (read off the bars); loss of protection by 10 IU/ml lymphoblastoid interferon, cytopathic effect of 5 ng/mL.
